Test results: PMC11362571, “Multistage protective anti-CelTOS monoclonal antibodies with cross-species sterile protection against malaria” (Nature Communications, 2024)

B1: monoclonal antibody 4h12 (IgG) [mouse] / P. falciparum CelTOS (3D7, PF3D7_1216600, residue F25-D182) [P. falciparum] (parent complex)
chain 1: QVQLQQSGPELVKPGASVKISCKASGYALSSSWLNWVKQRPGQGLEWIGRIFPGDGDTNYNGKFKGKATLTADKSSSTAYLQLSSLTSVDSAVYFCARGGTVVFDYWGQGTTLTVSSAKTTPPSVYPLAPGSAAQTNSMVTLGCLVKGYFPEPVTVTWNSGSLSSGVHTFPAVLQSDLYTLSSSVTVPSSTWPSETVTCNVAHPASSTKVDKKIVPRD
chain 2: DIVMTQSHKFMSTSVGDRVNITCKASQDVGIAVAWYQQRPGQSPKLLIYWASKRHTGVHDRFTGTGSGTDFTLTISTVQSEDLADYFCQQYSNSLTFGAGTTLELSRADAAPTVSIFPPSSEQLTSGGASVVCFLNNFYPKDINVKWKIDGSERQNGVLNSWTDQDSKDSTYSMSSTLTLTKDEYERHNSYACEATHKTSTSPIVKSFNR
chain 3: FRGNNGHNSSSSLYNGSQFIEQLNNSFTSAFLESQSMNKIGDDLAETISNELVSVLQKNSPTFLESSFDIKSEVKKHAKSMLKELIKVGLPSFENLVAENVKPPKVDPATYGIIVPVLTSLFNKVETAVGAKVSDEIWNYNSPDVSESEESLSDDFFD
B2: monoclonal antibody 7g7 (IgG) [mouse] / P. vivax CelTOS (Sal-1, PVX_123510, residue L36-D196) [P. vivax] (parent complex)
chain 1: EIQLQQSGPELVKPGASVKVSCKASGYSFTDYNMYWVKQSHGKSLEWIGYIDPYNGGTRYNQKFRDKATLTVDKSSSTAFMHLNSLTSEDSAVYYCARGYYYGNPLHFDVWGAGTTVTVSSAKTTPPSVYPLAPGSAAQTNSMVTLGCLVKGYFPEPVTVTWNSGSLSSGVHTFPAVLQSDLYTLSSSVTVPSSTWPSETVTCNVAHPASSTKVDKKIVPR
chain 2: QIVLTQSPAIMSASPGEKVTMTCSASSSVSYIHWYQQKSGTSPKRWIYDTSKLASGVPARFSGSGSGTSYSLTISSMEAEDAATYYCQQWISYPATFGAGTKLELKRADAAPTVSIFPPSSEQLTSGGASVVCFLNNFYPKDINVKWKIDGSERQNGVLNSWTDQDSKDSTYSMSSTLTLTKDEYERHNSYTCEATHKTSTSPIVKSFNRNEC
chain 3: LRGKSGSTASSSLEGGSEFSERIGNSLSSFLSESASLEVIGNELADNIANEIVSSLQKDSASFLQSGFDVKTQLKATAKKVLVEALKAALEPTEKIVASTIKPPRVSEDAYFLLGPVVKTLFNKVEDVLHKPIPDTIWEYESKGSLEEEEAEDEFSDELLD

Variants of: B1
Assay: ELISA; parent: 100; read off a plot

Variant	percent of parent [%]
chain 3 G112A, chain 3 I113A, chain 3 I114A	~98
chain 3 S29A, chain 3 F31A	~92
chain 3 V129A, chain 3 G130A	~100
chain 3 I70A, chain 3 K71A, chain 3 S72A, chain 3 E73A	~75
chain 3 Q35A, chain 3 S36A, chain 3 M37A	~100
chain 3 S60A, chain 3 P61A, chain 3 T62A	~27
chain 3 Y14A, chain 3 N15A, chain 3 G16A	~96
chain 3 L32A, chain 3 E33A, chain 3 S34A	~91
chain 3 Q57A, chain 3 K58A, chain 3 N59A	~1
chain 3 S67A, chain 3 F68A, chain 3 D69A	~94
chain 3 K132A, chain 3 V133A, chain 3 S134A	~99
chain 3 G16A, chain 3 S17A, chain 3 Q18A	~93
chain 3 W138A, chain 3 N139A, chain 3 Y140A	~93
chain 3 F63A, chain 3 L64A, chain 3 E65A	~0
chain 3 P108A	~96
chain 3 D135A, chain 3 E136A, chain 3 I137A	~98

Variants of: B2
Assay: ELISA; parent: 100; read off a plot

Variant	percent of parent [%]
chain 3 Q57A, chain 3 K58A, chain 3 D59A	~98
chain 3 S36A, chain 3 L37A	~93
chain 3 G16A, chain 3 S17A, chain 3 E18A	~98
chain 3 S60A, chain 3 S62A	~100
chain 3 E108A, chain 3 D109A	~68
chain 3 F63A, chain 3 L64A, chain 3 Q65A	~100
chain 3 F112A, chain 3 L113A, chain 3 L114A	~50
chain 3 L129A, chain 3 H130A, chain 3 K131A	~1
chain 3 S32A, chain 3 E33A, chain 3 S34A	~83
chain 3 S29A, chain 3 F30A, chain 3 L31A	~100
chain 3 K102A, chain 3 P103A, chain 3 P104A	~86
chain 3 W138A, chain 3 E139A, chain 3 Y140A	~1
chain 3 R105A, chain 3 V106A, chain 3 S107A	~77
chain 3 P132A, chain 3 I133A, chain 3 P134A	~1
chain 3 G67A, chain 3 F68A, chain 3 D69A	~99
chain 3 G115A, chain 3 P116A, chain 3 V117A	~94
chain 3 E14A, chain 3 G15A, chain 3 G16A	~100
